Target: the molecule itself
Assay: microfluidic denaturing gel electrophoresis (Bioanalyzer); Agilent Bioanalyzer 2100, Protein 80 chip; purified Qβ-wt and Qβ@AncUOX particles; dimer band left by incomplete denaturation

B1: Qβ capsid protein (coat protein), assembled as virus-like particle (natural protein, Qβ (bacteriophage, as named), UniProt P03615 1-133, looked up)
chain: MAKLETVTLGNIGKDGKQTLVLNPRGVNPTNGVASLSQAGAVPALEKRVTVSVSQPSRNRKNYKVQVKIQNPTACTANGSCDPSVTRQAYADVTFSFTQYSTDEERAFVRTELAALLASPLLIDAIDQLNPAY
notes: also called Qβ CP; CP; source: E. coli BL21 (DE3), co-expressed with Rev-tagged AncUOX from a bicistronic pCDF-1b plasmid; VLPs purified (ammonium sulfate precipitation, n-butanol:chloroform extraction, sucrose density ultracentrifugation)
- stoichiometry N: 2

From paper PMC10170503, “Oral Delivery of Nanoparticles Carrying Ancestral Uricase Enzyme Protects against Hyperuricemia in Knockout Mice” (Biomacromolecules, 2023)
